According to publication PMC7721721:

Test system: anti-digoxigenin IgG antibody (sheep)
Experiment: fluorescence (FRET) titration
Settings: 5'-digoxigenin; 25 mM HEPES pH 7.2, 0.1 M NaCl, 37 C (FRET titrations, templated reactions); native PAGE binding buffer not given in the material

Question: With “GTCACCGCAAAATAAGATTTTTTTTTTGAGTCGAATTCGTACC [DIG-Q-strand#2 (DIG-conjugated templating strand)]” as the sequence, how does the Kd read?
Answer: 3.6 nM
